Assay results as given in publication PMC7239899.

Test system: RpsA WT (Mycobacterium tuberculosis H37Rv)
Test: MST
Settings: MST: PBS-T/MST buffer with 0.1% Tween 20, 15 min at room temperature, 50 nM RpsA, tmRNA dilution series from 4.1 uM; EMSA buffer not given in material

tmRNA
Kd: 58.1 nM
